# From patent publication US20180355059A1 (PHARMAEXPLORER, published 2018)
# What was measured:
# [1] = target: T1, recombinant human PCSK9-His protein (Immunogen A) (human, UniProt Q8NBP7 31-692, limits assumed, biotinylated in the ELISA assays); assay: ELISA; antibody 0 nM
# T1 construct: also called hPCSK9-His; His-tagged hPCSK9; not shown: His tag
# [2] = target: T1, recombinant human PCSK9-His protein …; assay: BLI, Octet Red 96; antibody on AHC sensor
# Experimental: Dissociation constants were determined by Octed red 96 (Fortiebio). The detailed operation and methods were followed according to the specifications of the instrument provided by the manufacturer. Briefly, an AHC sensor (Anti-human Fc sensor, Fortiebio) was used for the affinity determination. The anti-PCSK9 antibody was diluted to 10 ug/mL in PBS buffer (pH7.4) containing 0.1% (w/w) BSA and 0.02% (v/v) Tween 20 and incubated with the AHC sensor. […] The reaction mixture was further incubated in PBS buffer (pH7.4) containing 0.1% (v/w) BSA and 0.02% (v/v) Tween 20 at 30° C. for 5 minutes.
# [3] = target: T1, recombinant human PCSK9-His protein …; assay: ELISA of PCSK9 binding to LDLR ECD; antibody 200 nM
# [4] = target: T1, recombinant human PCSK9-His protein …; assay: ELISA of PCSK9 binding to LDLR ECD; antibody 0.06 nM
# [5] = target: T2, recombinant cyno monkey PCSK9 protein (cyno monkey, UniProt A8T666 31-692 (rhesus entry), limits assumed, biotinylated in the ELISA assays); assay: ELISA; antibody 66.67 nM
# T2 construct: also called cyno PCSK9; Cyno Monkey PCSK9-His
# [6] = target: T2, recombinant cyno monkey PCSK9 protein; assay: ELISA; antibody 0.00067 nM
# [7] = target: T2, recombinant cyno monkey PCSK9 protein; assay: ELISA; antibody 0.067 nM
# [8] = target: T1, recombinant human PCSK9-His protein …; assay: ELISA of PCSK9 binding to LDLR ECD; antibody 0.01 nM
# [9] = target: T1, recombinant human PCSK9-His protein …; assay: ELISA; antibody 0.067 nM
# [10] = target: T1, recombinant human PCSK9-His protein …; assay: ELISA; antibody 6.67 nM
# [11] = target: T1, recombinant human PCSK9-His protein …; assay: ELISA; antibody 0.000067 nM
# [12] = target: T1, recombinant human PCSK9-His protein …; assay: ELISA; antibody 0.00067 nM
# [13] = target: T1, recombinant human PCSK9-His protein …; assay: ELISA of PCSK9 binding to LDLR ECD; antibody 40 nM
# [14] = target: T1, recombinant human PCSK9-His protein …; assay: ELISA; antibody 66.67 nM
# [15] = target: T1, recombinant human PCSK9-His protein …; assay: ELISA of PCSK9 binding to LDLR ECD; antibody 0.32 nM
# [16] = target: T2, recombinant cyno monkey PCSK9 protein; assay: ELISA; antibody 0.67 nM
# [17] = target: T1, recombinant human PCSK9-His protein …; assay: ELISA; antibody 0.0067 nM
# [18] = target: T2, recombinant cyno monkey PCSK9 protein; assay: ELISA; antibody 0.0067 nM
# [19] = target: T2, recombinant cyno monkey PCSK9 protein; assay: ELISA; antibody 0 nM
# [20] = target: T2, recombinant cyno monkey PCSK9 protein; assay: ELISA; antibody 0.000067 nM
# [21] = target: T2, recombinant cyno monkey PCSK9 protein; assay: ELISA; antibody 6.67 nM
# [22] = target: T1, recombinant human PCSK9-His protein …; assay: ELISA of PCSK9 binding to LDLR ECD; antibody 0 nM
# [23] = target: T1, recombinant human PCSK9-His protein …; assay: ELISA of PCSK9 binding to LDLR ECD; antibody 1.6 nM
# [24] = target: T1, recombinant human PCSK9-His protein …; assay: ELISA; antibody 0.67 nM
# [25] = target: T1, recombinant human PCSK9-His protein …; assay: SPR, Biacore T200; antibody captured by anti-human Fc
# Experimental: Anti-human Fc IgG was immobilized on flow cells 1 and 2: HBS-EP+(10 mM HEPES, 150 mM NaCl, 3 mM EDTA, 0.05% P20, pH 7.4) was used as running buffer, and the immobilization of anti-human Fc IgG was carried out using the immobilization wizard template. Flow cells 1 and 2 of a Series S CM5 sensor chip were activated with freshly-mixed 50 mmol/L NHS and 200 mmol/L EDC. 20 ug/mL of anti-human Fc IgG diluted in 10 mM NaAC (pH 4.5) was injected into the activated flow cells 1 and 2. The remaining active coupling sites were blocked with 1M ethanolamine.
# KD measurements were carried out with HBS-EP+ as the running buffer. Each antibody was injected over the CM5 sensor flow cell 2 with a flow rate of 10 uL/min to reach response 230 RU. […] Buffer flow was maintained for 400 seconds for dissociation measurements (30 uL/min). To remove the tested antibody from the surface, 10 mM glycine-HCl pH 1.5 was injected for 20 seconds (30 ulJmin). Flow cell 1 was used as reference flow cell. […] The KD value for each antibody was evaluated using Biacore T200 evaluation software 1.0, and the data was fit with a 1:1 binding model.
# T2 sequence (A8T666 31-692 limits assumed): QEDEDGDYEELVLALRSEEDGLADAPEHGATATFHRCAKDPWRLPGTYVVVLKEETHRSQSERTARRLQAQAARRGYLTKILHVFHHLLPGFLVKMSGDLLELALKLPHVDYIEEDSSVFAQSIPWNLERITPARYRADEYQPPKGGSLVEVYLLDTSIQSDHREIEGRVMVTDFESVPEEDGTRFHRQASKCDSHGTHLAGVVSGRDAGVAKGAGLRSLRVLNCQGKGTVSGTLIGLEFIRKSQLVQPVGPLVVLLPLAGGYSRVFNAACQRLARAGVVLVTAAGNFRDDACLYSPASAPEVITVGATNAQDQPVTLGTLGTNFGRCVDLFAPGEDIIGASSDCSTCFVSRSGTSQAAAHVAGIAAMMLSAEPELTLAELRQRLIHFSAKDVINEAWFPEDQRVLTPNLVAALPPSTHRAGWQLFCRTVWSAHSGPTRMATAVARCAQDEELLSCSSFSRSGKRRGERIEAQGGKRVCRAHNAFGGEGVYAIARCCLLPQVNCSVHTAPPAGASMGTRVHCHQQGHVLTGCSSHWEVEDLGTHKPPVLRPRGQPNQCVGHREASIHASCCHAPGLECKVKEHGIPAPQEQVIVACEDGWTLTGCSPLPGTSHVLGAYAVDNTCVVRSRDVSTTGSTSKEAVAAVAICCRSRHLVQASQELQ
binder,measurement,setting,value
"76A1B11, fully human anti-PCSK9 antibody (antibody, human IgG1, V domains shown) VH: QVQLVESGGGVVQPGRSLRLSCAATGFTFSIYGMHWVRQAPGKGLEWVAVIWYDGSNKYYADSVKGRFIISRDNSKNTLYLQMNSLRVEDTAVYYCVSDYFGSGNSYYYYGMDVWGQGTTVTVSS VL: DIQMTQSPSSLSASVGDRVTITCRASQVISNYLAWYQQKPGKVPKLLIYTASTLQSGVPSRFSGSGSGADFTLTISSLQPEDVATYYCQKYNSAPYTFGQGTKLEIK",OD450 nm,[1],0.06 OD450 nm
same,Kd,[2],12.1 nM
same,koff,[2],0.000643 s⁻¹
same,kon,[2],53100 M⁻¹ s⁻¹
same,OD450 nm,[3],1.27 OD450 nm
same,OD450 nm,[4],2.28 OD450 nm
same,OD450 nm,[5],3 OD450 nm
same,OD450 nm,[6],0.08 OD450 nm
same,OD450 nm,[7],1.46 OD450 nm
same,OD450 nm,[8],2.26 OD450 nm
same,OD450 nm,[9],0.8 OD450 nm
same,OD450 nm,[10],2.97 OD450 nm
same,OD450 nm,[11],0.06 OD450 nm
same,OD450 nm,[12],0.07 OD450 nm
same,OD450 nm,[13],1.35 OD450 nm
same,OD450 nm,[14],2.97 OD450 nm
same,OD450 nm,[15],2.31 OD450 nm
same,OD450 nm,[16],2.91 OD450 nm
same,OD450 nm,[17],0.14 OD450 nm
same,OD450 nm,[18],0.24 OD450 nm
same,OD450 nm,[19],0.07 OD450 nm
same,OD450 nm,[20],0.11 OD450 nm
same,OD450 nm,[21],3 OD450 nm
same,OD450 nm,[22],2.38 OD450 nm
same,OD450 nm,[23],2.19 OD450 nm
same,OD450 nm,[24],2.77 OD450 nm
"103C11E8, fully human anti-PCSK9 antibody (antibody, human IgG1, V domains shown) VH: QVQLQESGPGLVKPSGTLSLTCAVSGGSISSSNWWSWVRQPPGKGLEWIGEIYHSGSTNYNPSLKSRVTISVDKSKNQFSLKLSSVTAADTAVYYCARGIAVAGTDVMDAWGQGASVTVSS VL: EIVLTQSPATLSLSPGERATLSCRASQSVSSYLVWYQQKSGQAPRLLIYGTSNRATGIPARFSGSGSGTDFTLTISSLEPEDFALYYCQQRGNWMYTFGQGTKLEIK",Kd,[2],2.17 nM
same,Kd,[25],1.42 nM
